Experiment [1] addresses T1, cynomolgus CD38 (cynomolgus monkey, UniProt Q5VAN0 1-301). Nature of the experiment: cell-based or functional assay.
The next experiment deals with T2, human CD38 (human, UniProt P28907 1-300).
T2 construct: In the assays: on CHO-K1 cells transfected with full-length human CD38 cDNA, on human blood lymphocytes, RBCs, cell lines and tissue sections; also called human CD38 antigen
Nature of the experiment: binding to CHO cells expressing human CD38; CHO cells expressing human CD38.

Experiment [2] deals with T1, cynomolgus CD38. As to the kind of experiment: binding to monkey lymphocytes; method not described; monkey lymphocytes, not CHO cells.
In experiment [3] the target is T1, cynomolgus CD38. Nature of the experiment: flow cytometry on CHO cells expressing cynomolgus monkey CD38; CHO cells expressing monkey CD38. Background: A flow cytometer gives signals particle by particle.

T1 sequence (Q5VAN0 whole entry): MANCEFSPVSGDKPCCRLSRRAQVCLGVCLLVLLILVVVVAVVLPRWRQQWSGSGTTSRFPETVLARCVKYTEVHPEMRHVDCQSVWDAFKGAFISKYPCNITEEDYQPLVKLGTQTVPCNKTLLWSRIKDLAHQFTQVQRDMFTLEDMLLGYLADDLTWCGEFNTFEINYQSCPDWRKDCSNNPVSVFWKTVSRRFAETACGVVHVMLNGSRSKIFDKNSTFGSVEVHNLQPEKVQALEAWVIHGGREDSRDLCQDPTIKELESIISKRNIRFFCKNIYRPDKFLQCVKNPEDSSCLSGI

B1: AB79 (antibody, human IgG1, lambda, V domains shown)
VH: EVQLLESGGGLVQPGGSLRLSCAASGFTFDDYGMSWVRQAPGKGLEWVSDISWNGGKTHYVDSVKGQFTISRDNSKNTLYLQMNSLRAEDTAVYYCARGSLFHDSSGFYFGHWGQGTLVTVSS
VL: QSVLTQPPSASGTPGQRVTISCSGSSSNIGDNYVSWYQQLPGTAPKLLIYRDSQRPSGVPDRFSGSKSGTSASLAISGLRSEDEADYYCQSYDSSLSGSVFGGGTKLTVLG
notes: Fully human IgG1 monoclonal antibody; Used unlabelled, Alexa Fluor conjugated or biotinylated, depending on the assay; also called TAK 079
By Kd is commonly meant a measure of binding affinity in units of concentration. As usually defined, the EC50 is the concentration needed to bring the measured effect to its halfway point. For the molecule B1, the “cytolysis of NK cells in monkey whole blood in vitro, mean EC50” value with cynomolgus CD38 [1] is 29.6 nM. Besides, the Kd with human CD38 amounted to 0.7 nM; in the experiment with cynomolgus CD38 [2], 4 nM. The same molecule displayed a half-maximal effective concentration (EC50) with cynomolgus CD38 [3] of 4.5 nM.

The values are drawn from patent US20210388103A1 (Takeda / Millennium, published 2021).
